Changes are numbered by the printed parent chain.
B1: A10.min2 (ssRNA)
RNA: GGAGUCUGAGUACUCAGCGUCCGUAAGGGAUAUGCUCCGCCAGACUCC
modifications: 2'-F C,U
B2: D9.1 (ssRNA)
RNA: GGAAUCAUACACAAGAGUGUAUUACCCCCAACCCAGGGGGACCAUUCC
modifications: 2'-F C,U
B3: C11.1 (ssRNA)
RNA: GGAAGAAUGGUCGGAAUCUCUGGCGCCACGCUGAGUAUAGACGGAAGCUCCGCCAGA
modifications: 2'-F C,U
B4: AMX86-G10 (ssRNA)
RNA: GGGAAAAGCGAAUCAUACACAAGAGUCAUGGCUUACAAUUGAAACAAGAGCUCGCGUGACACAUGCUCCGCCAGAGACCAACCGAGAA
modifications: 2'-F C and U, 2'-OH A and G
B5: AMX91-B5 (ssRNA)
RNA: GGGAAAAGCGAAUCAUACACAAGACAGUGUAUGAGGAAGAUUACUUCCAUUCCUGAGCGGUUUUCGCUCCGCCAGAGACCAACCGAGAA
modifications: 2'-F C and U, 2'-OH A and G
B6: AMX84-C11 (ssRNA)
RNA: GGGAAAAGCGAAUCAUACACAAGAAUGGUCGGAAUCUCUGGCGCCACGCUGAGUAUAGACGGAAGCUCCGCCAGAGACCAACCGAGAA
modifications: 2'-F C and U, 2'-OH A and G
B7: F11.min1 (ssRNA)
RNA: GGUUAAAUCUCAUCGUCCCCGUUUGGGGAU
modifications: 2'-F C,U
B8: A10.min1 (ssRNA)
RNA: GGAGAUCAUACACAAGAAGUUUUUUGUGCUCUGAGUACUCAGCGUCCGUAAGGGAUCUCC
modifications: 2'-F C,U
B9: Type 2.1 (ssRNA)
RNA: GGAAUCAUACCGAGAGGUAUUACCCCGAAAGGGGACCAUUCC
modifications: 2'-F C,U
B10: C10.1 (ssRNA)
RNA: GGACACAAGAGAUGUAUUCAGGCGGUCCGCAUUGAUGUCAGUUAUGCGUAGCUCCGCC
modifications: 2'-F C,U
B11: B10.min3 (ssRNA)
RNA: GGAUCAUACACAAGAAGUGCUUCACGAAAGUGACGUCGAAUAGAUCC
modifications: 2'-F C,U
B12: Type 1.3 (ssRNA)
RNA: GGAUACCCGAGAGGGCUGGCGAAAGCCUCGGCGAGAGCUAUCC
modifications: 2'-F C,U
B13: C11.2 (ssRNA)
RNA: GGAGGCGCCACGCUGAGUAUAGACGGAAGCUCCGCCUCC
modifications: 2'-F C,U
B14: Type 1.1 (ssRNA)
RNA: GGCAUACACGAGAGUGCUGUCGAAAGACUCGGCCGAGAGGCUAUGCC
modifications: 2'-F C,U
B15: Type 1.2 (ssRNA)
RNA: B14 RNA with A8G, U15C, U20G, A27C
modifications: 2'-F C,U
B16: AMX86-B10 (ssRNA)
RNA: GGGAAAAGCGAAUCAUACACAAGAGAACGAGUAUAUUUGCGCUGGCGGAGAAGUCUCUCGAAGGGAGCUCCGCCAGAGACCAACCGAGAA
modifications: 2'-F C and U, 2'-OH A and G
B17: AMX84-E12 (ssRNA)
RNA: GGGAAAAGCGAAUCAUACACAAGAAGUUUUUGUGCUCUGAGUACUCAGCGUCCGUAAGGGAUAUGCUCCGCCAGAGACCAACCGAGAA
modifications: 2'-F C and U, 2'-OH A and G
B18: A10.min4 (ssRNA)
RNA: GGAGUCUGAGUACUCAGCGUCCCGAGAGGGGAUAUGCUCCGCCAGACUCC
modifications: 2'-F C,U
B19: ARC1167 (mixed)
RNA: ACAGGCAAGUAAUUGGGGAGUGCGGGCGGGGUGU
modifications: deoxy A,G; 2'-OMe C,U; PS 28-29 [PS linkage 28-29; 2'-OMe C,U at 2,6,10,13,14,21,23,27,32,34; all A,G 2'-deoxy]
B20: ARC1153 (mixed)
RNA: B19 RNA
modifications: deoxy A,G; 2'-OMe C,U; PS 8-9
B21: ARC1164 (mixed)
RNA: B19 RNA
modifications: deoxy A,G; 2'-OMe C,U; PS 22-23 [PS between 22-23; 2'-OMe C,U at 2,6,10,13,14,21,23,27,32,34; deoxy A,G at all other positions]
B22: ARC1152 (mixed)
RNA: B19 RNA
modifications: deoxy A,G; 2'-OMe C,U; PS 7-8
B23: ARC1155 (mixed)
RNA: B19 RNA
modifications: deoxy A,G; 2'-OMe C,U; PS 10-11 [PS between 10-11; 2'-OMe C,U at 2,6,10,13,14,21,23,27,32,34; deoxy A,G at all other positions]
B24: ARC1157 (mixed)
RNA: B19 RNA
modifications: deoxy A,G; 2'-OMe C,U; PS 12-13 [PS between 12-13; 2'-OMe C,U at 2,6,10,13,14,21,23,27,32,34; deoxy A,G at all other positions]
B25: ARC1169 (mixed)
RNA: B19 RNA
modifications: deoxy A,G; 2'-OMe C,U; PS 33-34 [PS linkage 33-34; 2'-OMe C,U at 2,6,10,13,14,21,23,27,32,34; all A,G 2'-deoxy]
B26: ARC1156 (mixed)
RNA: B19 RNA
modifications: deoxy A,G; 2'-OMe C,U; PS 11-12 [PS between 11-12; 2'-OMe C,U at 2,6,10,13,14,21,23,27,32,34; deoxy A,G at all other positions]
B27: ARC1168 (mixed)
RNA: B19 RNA
modifications: deoxy A,G; 2'-OMe C,U; PS 32-33 [PS linkage 32-33; 2'-OMe C,U at 2,6,10,13,14,21,23,27,32,34; all A,G 2'-deoxy]
B28: ARC1166 (mixed)
RNA: B19 RNA
modifications: deoxy A,G; 2'-OMe C,U; PS 27-28 [PS between 27-28; 2'-OMe C,U at 2,6,10,13,14,21,23,27,32,34; deoxy A,G at all other positions]
B29: ARC1159 (mixed)
RNA: B19 RNA
modifications: deoxy A,G; 2'-OMe C,U; PS 14-15 [PS between 14-15; 2'-OMe C,U at 2,6,10,13,14,21,23,27,32,34; deoxy A,G at all other positions]
B30: ARC1158 (mixed)
RNA: B19 RNA
modifications: deoxy A,G; 2'-OMe C,U; PS 13-14 [PS between 13-14; 2'-OMe C,U at 2,6,10,13,14,21,23,27,32,34; deoxy A,G at all other positions]
B31: ARC1165 (mixed)
RNA: B19 RNA
modifications: deoxy A,G; 2'-OMe C,U; PS 26-27 [PS between 26-27; 2'-OMe C,U at 2,6,10,13,14,21,23,27,32,34; deoxy A,G at all other positions]
B32: ARC1151 (mixed)
RNA: B19 RNA
modifications: deoxy A,G; 2'-OMe C,U; PS 6-7
B33: rRmY clone SEQ 87 (ssRNA)
RNA: AGGAGAGGAGAGAACGUUCUACUAGAAGCAGGCUCGAAUACAAUUCGGAAGUCGCUGUCGAUCGAUCGAUCGAUG
modifications: 2'-OMe C,U
B34: rRmY clone SEQ 73 (ssRNA)
RNA: GGGAGAGGAGAGAACGUUCUACAAAUGAGAGCAGGCCGAAAAGGAGUCGCUCGCUGUCGAUCGAUCGAUCGAUG
modifications: 2'-OMe C,U
B35: rRmY clone SEQ 71 (ssRNA)
RNA: B34 RNA with A41G
modifications: 2'-OMe C,U
B36: rRmY clone SEQ 78 (ssRNA)
RNA: B34 RNA with U26A
modifications: 2'-OMe C,U
B37: B10.min1 (ssRNA)
RNA: GGAGCGAAUCAUACACAAGAAGUGCUUCAUGCGGCAAACUGCAUGACGUCGAAUAGAUAUGCUCC
modifications: 2'-F C,U

What was measured:
[1] = target: T1, IL-23 (human, p19/p40 heterodimer) (Homo sapiens, UniProt Q9NPF7;P29460 SEQ:20-189,SEQ:23-328); test: filter; 100 nM IL-23; conditions: tags: R&D Systems, carrier free
[2] = target: T1, IL-23 (human, p19/p40 heterodimer); test: cell_activity; TransAM STAT3, PHA blasts; conditions: tags: R&D Systems
Method: In summary, the cell-based assay was conducted by isolating the peripheral blood mononuclear cells (PBMCs) from whole blood using a Histopaque gradient (Sigma, St. Louis, Mo.). The PBMCs were cultured for 3 to 5 days at 37° C./5% CO₂ in Peripheral Blood Medium (Sigma) which contains PHA, supplemented with IL-2 (100 units/mL) (R&D Systems, Minneapolis, Minn.), to generate PHA Blasts. To test IL-23 aptamers, the PHA Blasts were washed twice with 1×PBS, then serum starved for four hours in RPMI, 0.20% FBS. After serum starvation, approximately 2 million cells were aliquotted into appropriately labeled eppendorf tubes. hIL-23 at a final constant concentration of 3 ng/mL (R&D Systems, Minneapolis, Minn.) was combined with a dilution series of various IL-23 aptamers as described in Example 1, and the cytokine/aptamer mixture was added to the aliquotted cells in a final volume of 100 μl and incubated at 37° C. for 10-12 minutes. The incubation reaction was stopped by adding 1 mL of ice-cold PBS with 1.5 mM Na₃VO₄. Cell lysates were made using the lysis buffer provided by the TransAM™ STAT 3 assay following the manufacturer's instructions. FIG. 20 depicts a flow summary of the protocol used for the cell based assay.
Full length clones from the rRfY selection described in Example 1A, and select minimized rRfY clones that were described in Example 2A. 1, were tested using the TransAM™ STAT3 activation assay. Table 34 summarizes the cell based assay data for IL-23 full length aptamers generated from the rRfY selections described in Example 1A. 1, each compared to the activity of their respective parent (full length) clone.

[3] = target: T1, IL-23 (human, p19/p40 heterodimer); test: filter; -tRNA; conditions: tags: R&D Systems, carrier free
Method: These molecules were gel purified and assayed for IL-23 binding using the dot blot assay as described above and compared to each other and to the parent molecule, ARC979. An 8 point IL-23 titration (0 nM to 300 nM, 3 fold serial dilutions) was used in the binding assay.

[4] = target: T1, IL-23 (human, p19/p40 heterodimer); test: filter; DPBS Ca Mg; conditions: tags: R&D Systems, carrier free
Method: The selection progress was monitored using the dot blot sandwich filter binding assay as described in Example 1A. The 5′-³²P-labeled pool RNA was refolded at 90° C. for 3 minutes and cooled to room temperature for 10 minutes. Next, pool RNA (trace concentration) was incubated with h-IL-23 DPBS plus 0.1 mg/mL tRNA for 30 minutes at room temperature and then applied to a nitrocellulose and nylon filter sandwich in a dot blot apparatus (Schleicher and Schuell). The percentage of pool RNA bound to the nitrocellulose was calculated and monitored approximately every 3 rounds with a single point screen (+/−250 nM h-IL-23). Pool KD measurements were measured using a titration of h-IL-23 protein (R&D, Minneapolis, Minn.) and the dot blot apparatus as described above.
The rRmY h-IL-23 selection was enriched for h-IL-23 binding vs. the naïve pool after 4 rounds of selection (data not shown). The selection stringency was increased and the selection was continued for 8 more rounds. […] The rGmH selection was enriched over the naïve pool binding at Round 10. […] FIG. 7 is a binding curve of rRmY and rGmH pool selection binding to h-IL-23. The pools were cloned using TOPO TA cloning kit (Invitrogen, Carlsbad, Calif.) and individual sequences were generated and tested for binding. A single point binding screen was initially performed on all crude rRmY clone transcriptions using a 1:200 dilution, +/−200 nM IL-23, plus 0.1 mg/mL competitor tRNA. […] The 10 point screen was performed using zero to 480 nM IL-23 in 3 fold serial dilutions. Binding curves were generated (KaleidaGraph v. 3.51, Synergy Software) and KDs were estimated by fitting the data to the equation: fraction RNA bound=amplitude[h-IL-23]/KD+[h-IL-23]). […] There was one group of 6 duplicate sequences and 4 pairs of 2 duplicate sequences out of the rRmY clones generated. […] Clones were also tested from 48 crude rGmH clone transcriptions at a 1:200 dilution and 0.1 mg/mL tRNA was used as competitor.

T1 sequence (Q9NPF7 20-189, chain 1 of 2): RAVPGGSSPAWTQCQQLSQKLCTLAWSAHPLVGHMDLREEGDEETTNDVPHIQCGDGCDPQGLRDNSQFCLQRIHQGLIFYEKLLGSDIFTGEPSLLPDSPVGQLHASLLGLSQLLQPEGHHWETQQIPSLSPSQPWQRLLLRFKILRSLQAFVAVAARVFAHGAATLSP
T1 sequence (P29460 23-328, chain 2 of 2): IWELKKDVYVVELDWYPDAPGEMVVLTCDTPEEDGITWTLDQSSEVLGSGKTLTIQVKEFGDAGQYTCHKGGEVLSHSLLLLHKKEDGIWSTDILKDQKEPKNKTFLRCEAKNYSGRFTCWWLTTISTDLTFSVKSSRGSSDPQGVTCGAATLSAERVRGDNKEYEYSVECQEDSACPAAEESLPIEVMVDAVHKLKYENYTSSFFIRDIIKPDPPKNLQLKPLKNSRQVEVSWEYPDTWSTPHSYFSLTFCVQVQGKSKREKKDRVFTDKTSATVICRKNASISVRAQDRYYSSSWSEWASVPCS

Binder | binding signal [1] | Kd [3] [nM] | other results
B1 | 6 +/- ratio | – | –
B2 | 3.9 +/- ratio | – | –
B3 | 3.5 +/- ratio | – | –
B4 | – | – | IC50 [2]: ~2000 nM
B5 | – | – | IC50 [2]: 1000 nM
B6 | – | – | IC50 [2]: 800 nM
B7 | 0.6 +/- ratio | – | –
B8 | 3.1 +/- ratio | – | –
B9 | 5.2 +/- ratio | – | –
B10 | 4.4 +/- ratio | – | –
B11 | 0.8 +/- ratio | – | –
B12 | 0.6 +/- ratio | – | –
B13 | 2.3 +/- ratio | – | –
B14 | 0.9 +/- ratio | – | –
B15 | 0.7 +/- ratio | – | –
B16 | – | – | IC50 [2]: 800 nM
B17 | – | – | IC50 [2]: > 1000 nM
B18 | 0.7 +/- ratio | – | –
B19 | – | 107 | –

Binder | binding signal [1] | Kd [3] [nM] | other results
B20 | – | 174 | –
B21 | – | 79 | –
B22 | – | 232 | –
B23 | – | 168 | –
B24 | – | 69 | –
B25 | – | 74 | –
B26 | – | 369 | –
B27 | – | 82 | –
B28 | – | 132 | –
B29 | – | 77 | –
B30 | – | 192 | –
B31 | – | 55 | –
B32 | – | 142 | –
B33 | – | – | Kd [4]: 122 nM
B34 | – | – | Kd [4]: 101 nM
B35 | – | – | Kd [4]: 124 nM
B36 | – | – | Kd [4]: 124 nM
B37 | 33.9 +/- ratio | – | –

From patent publication US20060193821, “Aptamers to the human IL-12 cytokine family and their use as autoimmune disease therapeutics” (published 2006)
